# Test system: Escherichia coli TOP10
# Assay: shrunken log2 fold change of peptide-encoding DNA abundance (4.5 h post-induction vs induction); higher = less antimicrobial activity (less host growth inhibition)
# Settings: time post-induction: 4.5 h; library: site-saturation at positions 5, 18, 19, 20
# 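Further: peptides expressed intracellularly from a pBAD plasmid library in pooled LB shake-flask culture, induced with 0.3% L-arabinose, DNA abundance read by NGS, three biological replicates, DESeq2 with apeglm shrinkage.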
row,Sequence,shrunken log2 fold change
1,RRIRSRPPRLPRPRPRPCWHPRP,-0.245
2,RRIRERPPRLPRPRPRPRPDPRP,0.205
3,RRIRSRPPRLPRPRPRPQKQPRP,-0.122
4,RRIRYRPPRLPRPRPRPNWAPRP,-0.267
5,RRIRRRPPRLPRPRPRPFEQPRP,0.105
6,RRIRHRPPRLPRPRPRPWQRPRP,-0.1
7,RRIRCRPPRLPRPRPRPECNPRP,-0.0881
8,RRIRKRPPRLPRPRPRPHAYPRP,0.0163
9,RRIRRRPPRLPRPRPRPGSPPRP,0.107
10,RRIRPRPPRLPRPRPRPDYDPRP,-0.252
11,RRIRSRPPRLPRPRPRPSIKPRP,-0.613
12,RRIRDRPPRLPRPRPRPQDGPRP,0.0175
13,RRIRVRPPRLPRPRPRPESEPRP,0.0921
14,RRIRFRPPRLPRPRPRPQPDPRP,0.254
15,RRIRARPPRLPRPRPRPDKVPRP,0.0597
16,RRIRLRPPRLPRPRPRPFQRPRP,-0.0382
17,RRIRDRPPRLPRPRPRPKMLPRP,0.11
18,RRIRHRPPRLPRPRPRPWQTPRP,0.266
19,RRIRMRPPRLPRPRPRPIKTPRP,-0.0802
20,RRIRYRPPRLPRPRPRPKWGPRP,-0.297
21,RRIRCRPPRLPRPRPRPWGRPRP,-0.118
22,RRIRCRPPRLPRPRPRPPTSPRP,0.428

row,Sequence,shrunken log2 fold change
1,RRIRCRPPRLPRPRPRPFARPRP,0.0264
2,RRIRLRPPRLPRPRPRPNPEPRP,0.0435
3,RRIRFRPPRLPRPRPRPMCQPRP,-0.123
4,RRIRDRPPRLPRPRPRPGYCPRP,-0.658
5,RRIRLRPPRLPRPRPRPFPWPRP,-0.0836
6,RRIRWRPPRLPRPRPRPSMWPRP,0.111
7,RRIRRRPPRLPRPRPRPVDHPRP,0.34
8,RRIRHRPPRLPRPRPRPEKDPRP,-0.0422
9,RRIRDRPPRLPRPRPRPKFPPRP,-0.237
10,RRIRNRPPRLPRPRPRPQAPPRP,0.31
11,RRIRARPPRLPRPRPRPMRMPRP,0.784
12,RRIRHRPPRLPRPRPRPGALPRP,-0.00348
13,RRIRLRPPRLPRPRPRPTRFPRP,0.42
14,RRIRKRPPRLPRPRPRPNSDPRP,-0.0158
15,RRIRLRPPRLPRPRPRPGCIPRP,-0.346
16,RRIRDRPPRLPRPRPRPLHPPRP,0.286
17,RRIRFRPPRLPRPRPRPAIFPRP,-0.416
18,RRIRCRPPRLPRPRPRPGIYPRP,-0.0438
19,RRIRIRPPRLPRPRPRPTCEPRP,-0.132
20,RRIRPRPPRLPRPRPRPQEFPRP,0.0774
21,RRIRARPPRLPRPRPRPCVSPRP,-0.0271
22,RRIRPRPPRLPRPRPRPIAAPRP,0.621

row,Sequence,shrunken log2 fold change
1,RRIRLRPPRLPRPRPRPIIIPRP,-0.302
2,RRIRHRPPRLPRPRPRPRNDPRP,-0.0937
3,RRIRERPPRLPRPRPRPVDWPRP,0.0136
4,RRIRDRPPRLPRPRPRPQWWPRP,0.274
5,RRIRQRPPRLPRPRPRPQKCPRP,-0.00409
6,RRIRLRPPRLPRPRPRPRYCPRP,-0.357
7,RRIRDRPPRLPRPRPRPLCWPRP,0.824
8,RRIRYRPPRLPRPRPRPFDPPRP,-0.199
9,RRIRTRPPRLPRPRPRPMVVPRP,0.0636
10,RRIRYRPPRLPRPRPRPREFPRP,0.163
11,RRIRLRPPRLPRPRPRPCGWPRP,0.124
12,RRIRTRPPRLPRPRPRPRQIPRP,0.0896
13,RRIRWRPPRLPRPRPRPLWMPRP,0.151
14,RRIRDRPPRLPRPRPRPCDNPRP,-0.283
15,RRIRPRPPRLPRPRPRPKPLPRP,0.567
16,RRIRIRPPRLPRPRPRPRLHPRP,-0.341
17,RRIRMRPPRLPRPRPRPSHWPRP,0.0911
18,RRIRIRPPRLPRPRPRPLDMPRP,-0.285
19,RRIRMRPPRLPRPRPRPRNIPRP,0.0054
20,RRIRDRPPRLPRPRPRPWCHPRP,-0.407
21,RRIRCRPPRLPRPRPRPHKCPRP,-0.721
22,RRIRPRPPRLPRPRPRPMNSPRP,-0.125

row,Sequence,shrunken log2 fold change
1,RRIRFRPPRLPRPRPRPVYWPRP,-0.195
2,RRIRERPPRLPRPRPRPTIKPRP,-0.178
3,RRIRIRPPRLPRPRPRPWIQPRP,-0.318
4,RRIRGRPPRLPRPRPRPDVNPRP,0.245
5,RRIRTRPPRLPRPRPRPSGQPRP,0.0245
6,RRIRRRPPRLPRPRPRPKCCPRP,0.00261
7,RRIRMRPPRLPRPRPRPHKSPRP,0.223
8,RRIRHRPPRLPRPRPRPDPRPRP,0.0959
9,RRIRWRPPRLPRPRPRPKKYPRP,-0.245
10,RRIRMRPPRLPRPRPRPYKWPRP,-0.141
11,RRIRCRPPRLPRPRPRPNFYPRP,-0.228
12,RRIRKRPPRLPRPRPRPANCPRP,0.0966
13,RRIRRRPPRLPRPRPRPSVRPRP,0.238
14,RRIRMRPPRLPRPRPRPKGIPRP,0.0647
15,RRIRRRPPRLPRPRPRPYEHPRP,-0.0324
16,RRIRQRPPRLPRPRPRPPVWPRP,0.223
17,RRIRTRPPRLPRPRPRPALNPRP,-0.0937
18,RRIRGRPPRLPRPRPRPVYDPRP,0.32
19,RRIRWRPPRLPRPRPRPYRAPRP,-0.399
20,RRIRNRPPRLPRPRPRPHHQPRP,-1.12
21,RRIRNRPPRLPRPRPRPKWSPRP,0.0717
22,RRIRFRPPRLPRPRPRPMEVPRP,-0.00205

row,Sequence,shrunken log2 fold change
1,RRIRYRPPRLPRPRPRPNNMPRP,-0.633
2,RRIRVRPPRLPRPRPRPNDEPRP,-0.352
3,RRIRKRPPRLPRPRPRPWYRPRP,0.0232
4,RRIRGRPPRLPRPRPRPQSEPRP,0.273
5,RRIRFRPPRLPRPRPRPWDQPRP,0.0971
6,RRIRNRPPRLPRPRPRPVIDPRP,-0.123
7,RRIRIRPPRLPRPRPRPGYRPRP,-0.217
8,RRIRERPPRLPRPRPRPIKMPRP,-0.347
9,RRIRARPPRLPRPRPRPIMVPRP,-0.146
10,RRIRFRPPRLPRPRPRPHCYPRP,0.149
11,RRIRWRPPRLPRPRPRPMLIPRP,0.157
12,RRIRTRPPRLPRPRPRPKGFPRP,0.0975
13,RRIRSRPPRLPRPRPRPHDVPRP,-0.0229
14,RRIRLRPPRLPRPRPRPYDSPRP,0.00122
15,RRIRTRPPRLPRPRPRPGVQPRP,-0.133
16,RRIRRRPPRLPRPRPRPVTHPRP,0.598
17,RRIRPRPPRLPRPRPRPWLIPRP,-0.31
18,RRIRSRPPRLPRPRPRPHIVPRP,-0.243
19,RRIRNRPPRLPRPRPRPNWRPRP,0.216
20,RRIRCRPPRLPRPRPRPGNPPRP,-0.132
21,RRIRMRPPRLPRPRPRPRLQPRP,0.417
